Measurements from PMC3212559, “Large-Scale Protein-Protein Interaction Analysis in Arabidopsis Mesophyll Protoplasts by Split Firefly Luciferase Complementation” (PLoS ONE, 2011).

Experiments:
Test in all cases: split reporter (BiFC, NanoBiT); SFLC in living Arabidopsis mesophyll protoplasts: Aux/IAA-FLucN or MYB30-FLucN co-expressed with ARFCTD-FLucC or Aux/IAA-FLucC for 6 hr; 10 µg of each construct, 2×10^4 cells, 96-well plate, D-luciferin; relative activity standardised against ARF5CTD-FLucC + IAA28-FLucN
Conditions in all cases: partners not purified
[1] = target: T1, ARF10 C-terminal domain (CTD)-FLucC (Arabidopsis, UniProt Q9SKN5 580-693)
T1 construct: Arabidopsis auxin response factor 10, C-terminal dimerization domain (CTD); In the ARF-ARF tests the same CTD stood both as ARFCTD-FLucC and as ARFCTD-FLucN; one molecule for both; also called ARF10CTD-FLucC; ARFCTD-FLucC; source: Arabidopsis mesophyll protoplasts, transfected, in living cells (SFLC) and in lysate (co-IP); not shown: FLucC (firefly luciferase aa 394-550)
T1 sequence (looked up): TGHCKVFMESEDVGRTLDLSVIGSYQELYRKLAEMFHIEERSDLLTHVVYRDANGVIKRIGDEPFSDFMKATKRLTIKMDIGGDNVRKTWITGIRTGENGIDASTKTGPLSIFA

IAA7-FLucC = target: T2, IAA7-FLucC (Arabidopsis, UniProt Q38825 1-243)
T2 construct: Arabidopsis Aux/IAA protein IAA7; also called Aux/IAA-FLucC; source: Arabidopsis mesophyll protoplasts, transfected, in living cells; not shown: FLucC (firefly luciferase aa 394-550)
T2 sequence (looked up): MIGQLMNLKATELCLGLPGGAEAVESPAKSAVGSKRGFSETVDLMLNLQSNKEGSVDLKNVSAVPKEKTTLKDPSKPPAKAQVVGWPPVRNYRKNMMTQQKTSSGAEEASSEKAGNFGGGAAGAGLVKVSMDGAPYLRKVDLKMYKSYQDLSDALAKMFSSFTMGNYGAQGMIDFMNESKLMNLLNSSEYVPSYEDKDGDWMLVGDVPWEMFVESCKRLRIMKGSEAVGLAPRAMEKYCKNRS

IAA18-FLucC = target: T3, IAA18-FLucC (Arabidopsis, UniProt O24408 1-267)
T3 construct: Arabidopsis Aux/IAA protein IAA18; also called Aux/IAA-FLucC; source: Arabidopsis mesophyll protoplasts, transfected, in living cells; not shown: FLucC (firefly luciferase aa 394-550)
T3 sequence (looked up): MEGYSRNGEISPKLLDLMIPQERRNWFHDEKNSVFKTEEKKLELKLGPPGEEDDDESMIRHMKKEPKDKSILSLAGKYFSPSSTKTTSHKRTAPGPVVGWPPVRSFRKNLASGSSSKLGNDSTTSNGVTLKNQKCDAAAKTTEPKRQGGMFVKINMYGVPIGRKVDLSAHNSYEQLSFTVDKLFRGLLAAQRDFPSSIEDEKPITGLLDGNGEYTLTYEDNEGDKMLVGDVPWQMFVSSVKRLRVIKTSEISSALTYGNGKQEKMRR

[2] = target: T4, ARF12 C-terminal domain (CTD)-FLucC (Arabidopsis, UniProt Q9XID4 511-593)
T4 construct: Arabidopsis auxin response factor 12, C-terminal dimerization domain (CTD); In the ARF-ARF tests the same CTD stood both as ARFCTD-FLucC and as ARFCTD-FLucN; one molecule for both; also called ARF12CTD-FLucC; ARFCTD-FLucC; source: Arabidopsis mesophyll protoplasts, transfected, in living cells; not shown: FLucC (firefly luciferase aa 394-550)
T4 sequence (looked up): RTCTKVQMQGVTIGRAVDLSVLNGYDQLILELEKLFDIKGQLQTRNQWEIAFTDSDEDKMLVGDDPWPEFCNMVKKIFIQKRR

IAA28-FLucC = target: T5, IAA28-FLucC (Arabidopsis, UniProt Q9XFM0 1-175)
T5 construct: Arabidopsis Aux/IAA protein IAA28; also called Aux/IAA-FLucC; source: Arabidopsis mesophyll protoplasts, transfected, in living cells; not shown: FLucC (firefly luciferase aa 394-550)
T5 sequence (looked up): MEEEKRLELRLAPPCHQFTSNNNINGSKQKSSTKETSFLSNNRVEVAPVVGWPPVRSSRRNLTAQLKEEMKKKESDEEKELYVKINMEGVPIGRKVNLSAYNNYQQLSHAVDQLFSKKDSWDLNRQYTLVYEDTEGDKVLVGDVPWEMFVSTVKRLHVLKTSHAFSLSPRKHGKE

Measured: relative luciferase activity (standardised against ARF5CTD-FLucC + IAA28-FLucN)

B1: MYB30-FLucN (natural protein, UniProt Q9SCU7 1-323, looked up)
chain: MVRPPCCDKGGVKKGPWTPEEDIILVTYIQEHGPGNWRAVPTNTGLLRCSKSCRLRWTNYLRPGIKRGNFTEHEEKMIVHLQALLGNRWAAIASYLPQRTDNDIKNYWNTHLKKKLNKVNQDSHQELDRSSLSSSPSSSSANSNSNISRGQWERRLQTDIHLAKKALSEALSPAVAPIITSTVTTTSSSAESRRSTSSASGFLRTQETSTTYASSTENIAKLLKGWVKNSPKTQNSADQIASTEVKEVIKSDDGKECAGAFQSFSEFDHSYQQAGVSPDHETKPDITGCCSNQSQWSLFEKWLFEDSGGQIGDILLDENTNFF
notes: transcription factor MYB30, the unrelated protein used as negative control; source: Arabidopsis mesophyll protoplasts, transfected, in living cells; not shown: FLucN (firefly luciferase aa 1-398)
< 0.1: [1] | IAA7-FLucC | IAA18-FLucC | [2] | IAA28-FLucC
